Test results reported in patent publication US20100130424A1 (Janssen / Centocor, published 2010).
Where a chain is given by its changes, count along the chain named. No end group written: not given here. *: point of attachment. Succinimide(1-Et,3-yl) = CCN1C(=O)CC(*)C1=O

T1: human CRH receptor type 2 (human, UniProt Q13324 1-411)
T1 sequence (looked up): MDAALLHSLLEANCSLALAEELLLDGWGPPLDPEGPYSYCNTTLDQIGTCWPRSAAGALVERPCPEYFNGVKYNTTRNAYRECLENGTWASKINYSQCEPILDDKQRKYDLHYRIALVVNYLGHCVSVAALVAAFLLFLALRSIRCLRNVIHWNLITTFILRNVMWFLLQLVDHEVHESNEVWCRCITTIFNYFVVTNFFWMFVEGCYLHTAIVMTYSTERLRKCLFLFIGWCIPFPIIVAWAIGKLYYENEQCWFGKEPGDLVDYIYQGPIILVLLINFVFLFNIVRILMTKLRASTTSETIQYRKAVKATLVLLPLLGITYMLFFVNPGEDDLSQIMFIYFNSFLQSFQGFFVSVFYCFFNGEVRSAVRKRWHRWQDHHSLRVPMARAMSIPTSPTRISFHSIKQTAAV

B1: Cys-variant of stresscopin peptide with N-Ethylsuccinimide (NES) reactive group, SEQ ID NO: 44 (peptide)
peptide: TKFTLSLDVPTNIMNLLFNIAKAKNLRAQAAAC(Succinimide(1-Et,3-yl))AHLMAQI-NH2
modifications: N-terminus assumed
SMILES: CC[C@H](C)[C@H](NC(=O)[C@H](CCC(N)=O)NC(=O)[C@H](C)NC(=O)[C@H](CCSC)NC(=O)[C@H](CC(C)C)NC(=O)[C@H](Cc1c[nH]cn1)NC(=O)[C@H](C)NC(=O)[C@H](CSC1CC(=O)N(CC)C1=O)NC(=O)[C@H](C)NC(=O)[C@H](C)NC(=O)[C@H](C)NC(=O)[C@H](CCC(N)=O)NC(=O)[C@H](C)NC(=O)[C@H](CCCNC(=N)N)NC(=O)[C@H](CC(C)C)NC(=O)[C@H](CC(N)=O)NC(=O)[C@H](CCCCN)NC(=O)[C@H](C)NC(=O)[C@H](CCCCN)NC(=O)[C@H](C)NC(=O)[C@@H](NC(=O)[C@H](CC(N)=O)NC(=O)[C@H](Cc1ccccc1)NC(=O)[C@H](CC(C)C)NC(=O)[C@H](CC(C)C)NC(=O)[C@H](CC(N)=O)NC(=O)[C@H](CCSC)NC(=O)[C@@H](NC(=O)[C@H](CC(N)=O)NC(=O)[C@@H](NC(=O)[C@@H]1CCCN1C(=O)[C@@H](NC(=O)[C@H](CC(=O)O)NC(=O)[C@H](CC(C)C)NC(=O)[C@H](CO)NC(=O)[C@H](CC(C)C)NC(=O)[C@@H](NC(=O)[C@H](Cc1ccccc1)NC(=O)[C@H](CCCCN)NC(=O)[C@@H](N)[C@@H](C)O)[C@@H](C)O)C(C)C)[C@@H](C)O)[C@@H](C)CC)[C@@H](C)CC)C(N)=O
B2: Cys-variant CRHR2 peptide agonist, SEQ ID NO: 39 (peptide)
peptide: TKFTLSLDVPTNIMNLLFNIAKAKNLRAQAAANAHLMCQI-NH2
B3: Pegylated Cys-variant CRHR2 peptide agonist (NES linker, PEG about 20 kDa), SEQ ID NO: 88 (peptide)
peptide: TKFTLSLDVPTNIMNLLFNIAKAKNLRAQAAANCHLMAQI
modifications: NES-PEG (about 20 kDa) on Cys 34; C-terminal amide
B4: Pegylated Cys-variant CRHR2 peptide agonist (NES-PEG MW12000), SEQ ID NO: 97 (peptide)
peptide: B3 peptide with A28C, C34A
modifications: NES-PEG MW12000 on Cys 28; C-terminal amide
B5: Pegylated Cys-variant CRHR2 peptide agonist (NES-PEG MW2000), SEQ ID NO: 95 (peptide)
peptide: B3 peptide with A28C, C34A
modifications: NES-PEG MW2000 on Cys 28; C-terminal amide
B6: Pegylated Cys-variant CRHR2 peptide agonist (NES-PEG MW5000), SEQ ID NO: 96 (peptide)
peptide: B3 peptide with A28C, C34A
modifications: NES-PEG MW5000 on Cys 28; C-terminal amide
B7: Pegylated Cys-variant CRHR2 peptide agonist (NES linker, PEG about 20 kDa), SEQ ID NO: 94 (peptide)
peptide: B3 peptide with C34A, I40C
modifications: NES-PEG (about 20 kDa) on Cys 40; C-terminal amide
B8: Pegylated Cys-variant CRHR2 peptide agonist (NES linker, PEG about 20 kDa), SEQ ID NO: 93 (peptide)
peptide: B3 peptide with C34A, Q39C
modifications: NES-PEG (about 20 kDa) on Cys 39; C-terminal amide
B9: Pegylated Cys-variant CRHR2 peptide agonist (NES-PEG MW30000), SEQ ID NO: 99 (peptide)
peptide: B3 peptide with A28C, C34A
modifications: NES-PEG MW30000 on Cys 28; C-terminal amide
B10: Pegylated Cys-variant CRHR2 peptide agonist (NES-PEG-NEM MW20000), SEQ ID NO: 98 (peptide)
peptide: B3 peptide with A28C, C34A
modifications: NES-PEG-NEM MW20000 on Cys 28 (double-ended linear PEG with an N-Ethylmaleimide cap at the non-linked end); C-terminal amide
B11: Pegylated Cys-variant CRHR2 peptide agonist (NES linker, PEG about 20 kDa), SEQ ID NO: 89 (peptide)
peptide: B3 peptide with C34A, H35C
modifications: NES-PEG (about 20 kDa) on Cys 35; C-terminal amide
B12: Pegylated Cys-variant CRHR2 peptide agonist (NES linker, PEG about 20 kDa), SEQ ID NO: 91 (peptide)
peptide: B3 peptide with C34A, M37C
modifications: NES-PEG (about 20 kDa) on Cys 37; C-terminal amide
B13: Pegylated Cys-variant CRHR2 peptide agonist (NES linker, PEG about 20 kDa), SEQ ID NO: 92 (peptide)
peptide: B3 peptide with C34A, A38C
modifications: NES-PEG (about 20 kDa) on Cys 38; C-terminal amide
B14: Cys-variant of stresscopin peptide with N-Ethylsuccinimide (NES) reactive group, SEQ ID NO: 45 (peptide)
peptide: TKFTLSLDVPTNIMNLLFNIAKAKNLRAQAAC(Succinimide(1-Et,3-yl))NAHLMAQI-NH2
modifications: N-terminus assumed
SMILES: CC[C@H](C)[C@H](NC(=O)[C@H](CCC(N)=O)NC(=O)[C@H](C)NC(=O)[C@H](CCSC)NC(=O)[C@H](CC(C)C)NC(=O)[C@H](Cc1c[nH]cn1)NC(=O)[C@H](C)NC(=O)[C@H](CC(N)=O)NC(=O)[C@H](CSC1CC(=O)N(CC)C1=O)NC(=O)[C@H](C)NC(=O)[C@H](C)NC(=O)[C@H](CCC(N)=O)NC(=O)[C@H](C)NC(=O)[C@H](CCCNC(=N)N)NC(=O)[C@H](CC(C)C)NC(=O)[C@H](CC(N)=O)NC(=O)[C@H](CCCCN)NC(=O)[C@H](C)NC(=O)[C@H](CCCCN)NC(=O)[C@H](C)NC(=O)[C@@H](NC(=O)[C@H](CC(N)=O)NC(=O)[C@H](Cc1ccccc1)NC(=O)[C@H](CC(C)C)NC(=O)[C@H](CC(C)C)NC(=O)[C@H](CC(N)=O)NC(=O)[C@H](CCSC)NC(=O)[C@@H](NC(=O)[C@H](CC(N)=O)NC(=O)[C@@H](NC(=O)[C@@H]1CCCN1C(=O)[C@@H](NC(=O)[C@H](CC(=O)O)NC(=O)[C@H](CC(C)C)NC(=O)[C@H](CO)NC(=O)[C@H](CC(C)C)NC(=O)[C@@H](NC(=O)[C@H](Cc1ccccc1)NC(=O)[C@H](CCCCN)NC(=O)[C@@H](N)[C@@H](C)O)[C@@H](C)O)C(C)C)[C@@H](C)O)[C@@H](C)CC)[C@@H](C)CC)C(N)=O
B15: Cys-variant CRHR2 peptide agonist, SEQ ID NO: 41 (peptide)
peptide: TKFTLSLDVPTNIMNLLFNIAKAKNLRAQAAANAHLMAQC-NH2
B16: Cys-variant of stresscopin peptide with N-Ethylsuccinimide (NES) reactive group, SEQ ID NO: 43 (peptide)
peptide: TKFTLSLDVPTNIMNLLFNIAKAKNLRAQAAANAC(Succinimide(1-Et,3-yl))LMAQI-NH2
modifications: N-terminus assumed
SMILES: CC[C@H](C)[C@H](NC(=O)[C@H](CCC(N)=O)NC(=O)[C@H](C)NC(=O)[C@H](CCSC)NC(=O)[C@H](CC(C)C)NC(=O)[C@H](CSC1CC(=O)N(CC)C1=O)NC(=O)[C@H](C)NC(=O)[C@H](CC(N)=O)NC(=O)[C@H](C)NC(=O)[C@H](C)NC(=O)[C@H](C)NC(=O)[C@H](CCC(N)=O)NC(=O)[C@H](C)NC(=O)[C@H](CCCNC(=N)N)NC(=O)[C@H](CC(C)C)NC(=O)[C@H](CC(N)=O)NC(=O)[C@H](CCCCN)NC(=O)[C@H](C)NC(=O)[C@H](CCCCN)NC(=O)[C@H](C)NC(=O)[C@@H](NC(=O)[C@H](CC(N)=O)NC(=O)[C@H](Cc1ccccc1)NC(=O)[C@H](CC(C)C)NC(=O)[C@H](CC(C)C)NC(=O)[C@H](CC(N)=O)NC(=O)[C@H](CCSC)NC(=O)[C@@H](NC(=O)[C@H](CC(N)=O)NC(=O)[C@@H](NC(=O)[C@@H]1CCCN1C(=O)[C@@H](NC(=O)[C@H](CC(=O)O)NC(=O)[C@H](CC(C)C)NC(=O)[C@H](CO)NC(=O)[C@H](CC(C)C)NC(=O)[C@@H](NC(=O)[C@H](Cc1ccccc1)NC(=O)[C@H](CCCCN)NC(=O)[C@@H](N)[C@@H](C)O)[C@@H](C)O)C(C)C)[C@@H](C)O)[C@@H](C)CC)[C@@H](C)CC)C(N)=O
B17: Cys-variant CRHR2 peptide agonist, SEQ ID NO: 40 (peptide)
peptide: TKFTLSLDVPTNIMNLLFNIAKAKNLRAQAAANAHLMACI-NH2
B18: Cys-variant CRHR2 peptide agonist, SEQ ID NO: 37 (peptide)
peptide: TKFTLSLDVPTNIMNLLFNIAKAKNLRAQAAANAHCMAQI-NH2
B19: Cys-variant CRHR2 peptide agonist, SEQ ID NO: 38 (peptide)
peptide: TKFTLSLDVPTNIMNLLFNIAKAKNLRAQAAANAHLCAQI-NH2
B20: Cys-variant CRHR2 peptide agonist, SEQ ID NO: 36 (peptide)
peptide: TKFTLSLDVPTNIMNLLFNIAKAKNLRAQAAANACLMAQI-NH2
B21: Cys-variant of stresscopin peptide with N-Ethylsuccinimide (NES) reactive group, SEQ ID NO: 42 (peptide)
peptide: TKFTLSLDVPTNIMNLLFNIAKAKNLRAQAAANAHLMAQC(Succinimide(1-Et,3-yl))-NH2
modifications: N-terminus assumed
SMILES: CC[C@H](C)[C@H](NC(=O)[C@H](CC(N)=O)NC(=O)[C@H](Cc1ccccc1)NC(=O)[C@H](CC(C)C)NC(=O)[C@H](CC(C)C)NC(=O)[C@H](CC(N)=O)NC(=O)[C@H](CCSC)NC(=O)[C@@H](NC(=O)[C@H](CC(N)=O)NC(=O)[C@@H](NC(=O)[C@@H]1CCCN1C(=O)[C@@H](NC(=O)[C@H](CC(=O)O)NC(=O)[C@H](CC(C)C)NC(=O)[C@H](CO)NC(=O)[C@H](CC(C)C)NC(=O)[C@@H](NC(=O)[C@H](Cc1ccccc1)NC(=O)[C@H](CCCCN)NC(=O)[C@@H](N)[C@@H](C)O)[C@@H](C)O)C(C)C)[C@@H](C)O)[C@@H](C)CC)C(=O)N[C@@H](C)C(=O)N[C@@H](CCCCN)C(=O)N[C@@H](C)C(=O)N[C@@H](CCCCN)C(=O)N[C@@H](CC(N)=O)C(=O)N[C@@H](CC(C)C)C(=O)N[C@@H](CCCNC(=N)N)C(=O)N[C@@H](C)C(=O)N[C@@H](CCC(N)=O)C(=O)N[C@@H](C)C(=O)N[C@@H](C)C(=O)N[C@@H](C)C(=O)N[C@@H](CC(N)=O)C(=O)N[C@@H](C)C(=O)N[C@@H](Cc1c[nH]cn1)C(=O)N[C@@H](CC(C)C)C(=O)N[C@@H](CCSC)C(=O)N[C@@H](C)C(=O)N[C@@H](CCC(N)=O)C(=O)N[C@@H](CSC1CC(=O)N(CC)C1=O)C(N)=O

Target: T1, human CRH receptor type 2
Test: cell-based or functional assay

| Binder | Log DR against h-SCP, cAMP [log10 ratio] | pA50, cAMP |
| --- | --- | --- |
| B1 | ~1.97 | ~7.5 -log M |
| B2 | 0.41 | 9.21 -log M |
| B3 | 1.55 | 8.12 -log M |
| B4 | ~0.74 | ~9 -log M |
| B5 | 0.43 | 9.31 -log M |
| B6 | 1 | 8.74 -log M |
| B7 | > 2.39 | ~7 -log M |
| B8 | 1.47 | 8.2 -log M |
| B9 | 0.8 | 8.94 -log M |
| B10 | 0.18 | 9.5 -log M |
| B11 | 0.98 | 8.48 -log M |
| B12 | > 3.43 | ~6.23 -log M |
| B13 | 1.55 | 8.12 -log M |
| B14 | -0.01 | 9.48 -log M |
| B15 | 2.07 | 7.45 -log M |
| B16 | -0.32 | 9.79 -log M |
| B17 | 0.55 | 9.08 -log M |
| B18 | 1.05 | 8.58 -log M |
| B19 | > 2.95 | ~6.67 -log M |
| B20 | 0.42 | 9.1 -log M |
| B21 | ~1.72 | ~7.75 -log M |
